Laboratory results as given in the supplement of paper PMC10567573.

B1: SMG5 (parent)
chain: FVSIAQSEQESLLQQAQAQFRMAQ
B2: LOXL2 (parent)
chain: HISSCKLGPQVSLDPMKNVTCENG
B3: APBB1IP (parent)
chain: LPLPPPPPEPLSQVSMWDQRWQDH

Variants of: B1
Assay: protein stability index of a GFP-peptide fusion (GPS, HEK-293T) (PSI 1-6); higher = more stable
Details: c terminus: a fixed tail appended
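Also: lentivirally expressed fusions sorted by FACS into six bins by GFP to DsRed ratio, PSI derived from sequencing read proportions per bin multiplied by bin number.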

Protein stability index: each site, then its substitutions
S7: M 1.65, Y 1.57, E 2.85, K 1.98, F 2.22, I 2.56, R 2.79, A 2.38, D 2.33, L 1.77, T 2.36, Q 2.5, H 2.77, P 2, N 2.27, C 1.63, W 3.26, G 2.61
Q9: A 1.56
V2: T 3.35, N 4.14, A 3.24, I 2.59, M 2.9, E 3.69, G 3.65, P 3.8, Q 2.9, F 2.22, H 2.43, K 3.12, W 2.98, D 3.77, R 3.45, Y 2.69, L 2.99, S 3.45, C 2.82
E8: C 2.04, F 3.04, R 1.42, S 1.82, Y 1.4, L 2.19, H 2.02, I 1.9, P 1.62, V 1.39, Q 2.44, M 1.57, A 2.2, G 1.86, N 1.92, D 2.39, T 1.84, K 2.07
F1: M 2.97, S 3.41, H 3.9, I 2.96, A 4.58, Y 2.51, T 4.04, V 3.88, W 2.65, L 3.3, P 3.77, D 4.28, R 3.42, N 3.93, K 3.77, C 2.75, E 4.16, G 4.01, Q 3.7
A5: G 1.66, P 1.88, V 1.42, L 2.23, Y 1.91, N 1.86, S 1.76, C 1.82, M 2.58, Q 2.11, I 1.78, R 2.57, H 2.21, E 2.64, K 2.3, D 3.41, F 2.56, T 1.54
S3: E 2.61, G 2.13, T 2.25, M 1.6, N 1.83, F 1.87, L 1.87, W 2.89, V 1.77, K 2.28, D 2.22, H 1.74, A 1.99, P 2.22, R 2.31, Y 1.58, Q 2.62, C 1.66, I 1.61
I4: G 2.42, L 1.86, K 2.39, R 2.06, M 2.61, N 2.49, C 1.83, H 1.9, S 1.87, E 2.91, W 2.8, A 2.38, Q 3.01, F 2.2, Y 2.12, D 3.09, T 2.78, P 3.08, V 2.29
Q6: G 1.85, M 2.19, P 2.35, T 1.84, A 1.9, H 1.92, K 2.26, L 1.79, E 2.93, Y 2.32, S 2.25, C 1.44, V 1.53, N 1.97, R 2.33, F 2.15, I 2.02, D 2.75

Variants of: B2
Assay: as above
Details: c terminus: a fixed tail appended

Protein stability index: each site, then its substitutions
P15: K 3.93, H 4.02, T 4.14, C 3.43, L 3.62, Y 2.84, G 3.93, M 3.74
C5: D 4.77, W 3, P 4.01, Q 4.49, K 4.53, E 4.95, N 3.29, R 4.1, I 3.87, A 4.39, T 4.54, V 4.31
K6: N 4.32, W 2.64, F 2.98, T 4.36, E 4.35, S 4.34
D14: E 4.12, I 3.44, G 3.45, A 3.51, S 3.65, H 3.61, T 3.62
N18: Y 3.08, C 3.11, K 4.19, Q 4.2, S 3.2, A 3.76, M 3.42, F 2.82
S4: T 3.65, G 3.79, W 2.32, F 3.34, H 3.98, C 3.78, Q 3.69, R 3.52, D 3.61, A 3.65
T20: E 4.16, D 4.4, G 3.87, K 4.26, S 4.08, H 3.85, C 3.37, W 2.31
L13: G 4.61, N 4.42, A 4.43
C21: R 3.94, F 3.65, K 4.06, A 4.41, H 4.03, L 3.88, V 4.1
V19: I 3.59, H 3.89, G 4.15, M 3.55, R 4.26, S 4.38, K 4.13
G24: K 3.82, L 3.45, E 4.47, I 3.39, R 3.58, S 4.25, A 3.65, M 3.52, V 3.67, W 2.93
K17: C 3.63, P 4.01, R 3.55, N 4.3, S 4.02
S12: Q 4.44, K 3.9, T 4.34, N 3.9, M 3.57, V 3.92
P9: I 2.63, R 3.76, G 3.51, S 3.05, C 3.23, Q 3.87
Q10: G 4.53, A 4.29, Y 3.07, K 3.77, V 3.56, H 3.52, I 3.54, D 4.58
V11: G 3.25, D 4.35, Y 3.67, W 3.44, H 4.41, K 3.48, C 4.27, R 3.94
E22: W 2.09, Y 2.44, Q 3.47, G 3.17, T 3.23, R 3.5
H1: F 2.01, P 4.33, I 2.63, L 3.29, E 3.96, K 4.22
S3: I 3.39, Y 2.62, W 3.14, C 2.78, Q 3.92, H 3.51, E 4.24
I2: Y 3.61, D 4.58, G 4.53, L 4.24, F 3.58, W 3.31
M16: V 4.34, Q 4.43, K 4.5, L 3.78, D 4.75, S 4.23, N 4.61, H 4.11, R 4.47
N23: Q 4.08, G 3.85, H 3.61, Y 3.35, K 3.98, D 4.38, M 3.26, E 4.63
G8: D 4.34, A 3.77, S 3.66, F 3.04, T 4.45, Y 3.4, C 3.15, N 4.07, P 4.01, E 4.53, W 1.87
L7: Q 4.32, H 4.19, C 3.59, Y 3.74, P 4.51, V 4.19, D 4.15, R 4.15

Variants of: B3
Assay: as above
Details: c terminus: a fixed tail appended

Protein stability index: each site, then its substitutions
P7: E 4.25, K 3.97
P5: M 3.84, W 3.4, K 3.28
